This is an account of results in US20200140551A1.

Assay [1] has as its target cynomolgus ICOS (cynomolgus). The assay can be described thus: Biacore (SPR), cyno ICOS; format not described.
A further assay deals with human ICOS (human) (UniProt Q9Y6W8). The assay can be described thus: Biacore (SPR), human ICOS; format not described. On the technique in general: Surface plasmon resonance follows binding to a sensor surface in real time, without labels.

The Kd is a measure of binding affinity in units of concentration.

human ICOS (human), sequence (Q9Y6W8 21-140 limits assumed): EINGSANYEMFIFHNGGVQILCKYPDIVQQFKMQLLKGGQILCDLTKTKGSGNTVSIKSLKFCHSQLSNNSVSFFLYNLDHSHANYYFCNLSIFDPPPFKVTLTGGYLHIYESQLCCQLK
cynomolgus ICOS (cynomolgus), sequence (A0A2K5 entry or part of it limits assumed): as the sequence (Q9Y6W8 21-140 limits assumed) above, with H81R counted along it

B1: murine anti-human ICOS mAb clone 314.8 (antibody, from another filing, V domains shown)
VH: QVQLQQPGTELMKPGASVKLSCKASGYTFTTYWMHWVKQRPGQGLEWIGEIDPSDSYVNYNQNFKGKATLTVDKSSSTAYIQLSSLTSEDSAVYFCARSPDYYGTSLAWFDYWGQGTLVTVST
VL: DIVMTQAAPSVPVTPGESVSISCRSSKSPLHSNGNIYLYWFLQRPGQSPQLLIYRMSNLASGVPDRFSGSGSGTTFTLKISRVEAEDVGVYYCMQHLEYPYTFGGGTKLEIK
For B1, the Kd amounted to 9.3 nM in assay [1] and 17 nM with human ICOS (human).
